The source of these data is article PMC6987245.

Experiment [1] deals with TAMRA-labeled UBXN1 UBA(ext1-52) domain (UniProt Q04323). Nature of the experiment: MST; TAMRA-UBA peptide in FP binding buffer, K6 diUb 1.53 to 50 μM, 30 min incubation, hydrophobic capillaries, Monolith NT.115, 30% LED and 40% IR-laser power.
Experiment [2] has the same target. Nature of the experiment: fluorescence polarisation; 5 nM TAMRA-labeled UBA peptide fixed, diubiquitin 0.78 to 25 μM in six steps, triplicate; overnight incubation at 4°C, read at room temperature; 20 mM Tris pH 7.6, 150 mM NaCl, 0.5 mg/ml BGG, 1% TX-100; one site binding (hyperbola) fit.

Chain of UniProt Q04323 (Q04323 1-52): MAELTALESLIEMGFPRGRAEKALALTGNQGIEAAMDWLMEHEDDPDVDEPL

For “K6-linked diubiquitin (native, unlabeled) (from UniProt P0CG48 1-76; P0CG48 1-76)”, the Kd in experiment [1] was 1050 nM; in experiment [2], 1430 nM.
